Laboratory results published in article PMC12377726 (Proceedings of the National Academy of Sciences of the …, 2025).
Substitutions are numbered along the chain they refer to.

B1: G001_gp1_V08_VRC01c_2021-0056 (antibody, V domains shown)
VH: QVQLVQSGAEVKKPGASVTVSCKASGYTFTGYYMHWVRQAPGQGLEWMGWINPNSGGTNYAQKFQDWVTMTRDTSISTAYMELSRLRSDDTAVYYCATALGGSPGRIWSMDVWGQGTTVTVSS
VL: QSALTQPASVSGSPGQSITISCTGTSSDVGGSNYVSWYQQHPGKAPKLLIYDVSNRPSGVSSRFSGSKSGNTASLTISGLQAEDEADYYCSSYEVFGTGTKVTVL
B2: G001_gp1_V10_VRC01c_164 (antibody, V domains shown)
VH: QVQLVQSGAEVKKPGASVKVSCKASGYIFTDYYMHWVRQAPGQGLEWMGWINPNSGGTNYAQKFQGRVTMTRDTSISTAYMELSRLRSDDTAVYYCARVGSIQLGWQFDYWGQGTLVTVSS
VL: EIVMTQSPATLSVSPGERATLSCRASQSVSSNLAWYQQIPGQAPRLLIYGTSTRATGIPARFSGSGSGTEFTLTISSLQSEDFAVYYCQQYETFGQGTKLEIK
B3: G001_gp1_V08_VRC01c_2021-0062 (antibody, V domains shown)
VH: QVQLVQSGAEVKKPGASVKVSCKASGYTFTGYYIHWVRQAPGQGLEWMGWINPNSGGTNYAQEFQDWVTMTRDTSISTAYMELSRLSSDDTAVFYCARAKYYDAWSGYYFDFWGQGTLVTVSS
VL: DIQMTQAPSTLSASVGDRVTITCRASETTSSWVAWYQQKPGKAPKVLIYDASSLQSGVPSRFSGSGSGTEFTLTISSLQPDDFATYYCQQYNTFGGGTKVEIK
B4: G001_gp1_V08_VRC01c_2021-0060 (antibody, V domains shown)
VH: QVQLVQSGAEAKKPGASVKVSCKASGYTFTGYYMHWVRQAPGQGLEWMGWINPNSGGTNYAQKFQDWVTMTRDTSISTAYMELNRLRSDDTAVYYCATTGGTAVTAAHRWYFDLWGRGTLVTVSS
VL: EIVLTQSPGTLSLSPGDRATLSCRASQSVSSSYLAWYQQKPGQAPRLLIYGAASRATGIPDRFSGSGSETDFTLTISRLEPEDSAVYYCQHYEGFGQGTRLEIK
B5: G001_gp1_V08_VRC01c_2021-0072 (antibody, V domains shown)
VH: QVQLVQSGAEVKKPGASVKISCKASGYTFSGYYMHWVRQAPGQGLEWMGWINPNSGGTNYAQKFQDWVTMTRDTSISTVYMELSRLRSDDTAVYYCAREWCSGGTCYSGPTFDFWGQGTLVTVSS
VL: B4 VL with D17E, S32N, P41S, A53S, E69G, S84F, G94T, R100K, L101V
B6: G001_gp1_V08_VRC01c_2021-0065 (antibody, V domains shown)
VH: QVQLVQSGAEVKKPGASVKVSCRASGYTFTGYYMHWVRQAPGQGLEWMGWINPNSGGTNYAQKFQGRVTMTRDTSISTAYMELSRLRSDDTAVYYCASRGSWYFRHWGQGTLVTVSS
VL: DIQMTQSPSSLSASVGDRVTITCQARHDISKYLNWYQQKPGKAPKLLIYDASDLETGVPSRFSGSGSGTDFTFTISSLQPEDIATYYCQQYDSFGGGTRVEIK
B7: G001_gp1_V10_VRC01c_166 (antibody, V domains shown)
VH: not shown
VL: B6 VL with R26S, H27Q, K31N, D53N, D92N, S93T, G96Q, R99K, V100L
B8: G001_gp1_V08_VRC01c_2021-0077 (antibody, V domains shown)
VH: QVQLVQSGAEVKKPGASVKVSCKASGYTFTDYYMHWVRQASGQGLEWMGWINPNSGGTNYAQEFQGRVTMTRDTSISTAYMELSRLRYDDTAVYYCASGGYSRTWSFNIWGLGTMVTVSS
VL: B6 VL with R26S, H27Q, K31T, S52T, D53N, D92E, S93T, G96Q, V100L
B9: G001_gp1_V08_VRC01c_2021-0074 (antibody, V domains shown)
VH: QVQLVQSGAEVKKPGASVKVSCKASGYTFTDYYMHWVRQAPGQGLEWMGWINPNSGGTNYAQKFQGWVTMTRDTSVSTAYMELRRLRSDDTAVYYCASGRGSSGWALDYWGQGTLVTVSS
VL: B6 VL with R26S, H27Q, K31N, D53I, D70E, D92E, S93A, G96Q, R99K, V100L
B10: G001_gp1_V10_VRC01c_160 (antibody, V domains shown)
VH: QVQLVQSGAEVKKPGASMKVSCEASGYTFTDYYMHWVRQAPGQGLEWMGWINPNSGGTNYAQKFQGRVTMTRDTSISTAYMELSRLRSDDTAVYYCATSIRDYLSGKVWYLGLWGRGTLVTVSS
VL: B6 VL with R26S, H27Q, K31N, D53N, S76T, D92E, S93T, G96Q, R99K
B11: G001_gp1_V08_VRC01c_2021-0082 (antibody, V domains shown)
VH: QVQLVQSGTEVKKPGASVKVSCKASGYTFTGYYIHWVRQAPGQGLEWMGWINPNSGGTNYAQKFQGWVTMTRDTSISTAYMELRRLTSVDTAVYYCARARSGYSSGWYWAYWGQGTLVTVSS
VL: B6 VL with R26S, H27Q, K31N, D53N, D92E, S93F, R99K
B12: G001_gp1_V08_VRC01c_2021-0078 (antibody, V domains shown)
VH: QVQLVQSGAEVKKPGASVKVSCKASGYTFTGYYMHWVRQAPGQGLEWMGWINPNSGGTNFAQKFQGRVTMTRGTSITTTYMELSRLRSDDTAVYYCARVSQYRTGWYFGYWGQGTLVTVSS
VL: B6 VL with R26S, H27Q, K31N, D53N, D92E, S93F, R99K
B13: G001_gp1_V08_VRC01c_2021-0057 (antibody, V domains shown)
VH: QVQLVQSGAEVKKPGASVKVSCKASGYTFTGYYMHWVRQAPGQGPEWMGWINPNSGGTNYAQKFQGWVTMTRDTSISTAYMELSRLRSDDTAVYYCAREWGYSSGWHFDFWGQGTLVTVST
VL: EIVLTQSPGSLSLSPGERATLSCRASQSGSSRYLAWYQQKPGQAPRLLIYGASNRATGIPNRFSGSGSGTDFVLTISRLEPEDFAVYYCQQYESFGPGTKVDIK
B14: G001_gp1_V08_VRC01c_2021-0059 (antibody, V domains shown)
VH: QAQLMQSGAEVKKPGASVKVSCKASGYTFTDYYMHWVRQAPGQGLEWMGWINPNSGGTNYAQKFQGWVTMTRDTSISTAFMELSRLRSDDTAVYFCATTNRYTSTWLFDYWGQGTLVTVSS
VL: B13 VL with S10T, G29V, R32S, N61D, V73T, P97Q, V101L, D102E
B15: G001_gp1_V08_VRC01c_2021-0081 (antibody, V domains shown)
VH: QVQLVQSGAEVKKPGASVKVSCKASGYTFTDHYMHWVRQAPGQGLEWMGWINPNSGGTNYAQKFQGWVTMTRDTSVSTAYMEVRRLRSDDTAVYYCAIIHYRRSSWEFAYWGQGTLVTVSS
VL: DIQMTQSPSSLSASVGDRVTVTCQASQDISNSLNWYQQKPGKAPKLLIYGASNLETGVPSRFSGSGSGTDFTFTISSLQPEDIGTYYCQQYETFGQGTKLEIR
B16: G001_gp1_V08_VRC01c_2021-0073 (antibody, V domains shown)
VH: QVQLVQSGAEVKKPGASVKVSCKASGYTFTGYYMHWVRQAPGQGLEWMGWINPNSGGTNYAQKFQDWVTMTRDTSISTAYMELRRLRSDDTAVYYCARGMSAKWFDSWGQGTLVTVSS
VL: EIVLTQSPGTLSLSPGERATLSCRASQSFSNSYVAWYQQKPGQGPRLLIYGASSRATGIPDRFSGSGSGTDFTLTISRLEPEDFAVYYCQQYETFGQGIKLEIT
B17: G001_gp1_V10_VRC01c_167 (antibody, V domains shown)
VH: QVQLVQSGAEVKKPGASVKVSCKASGYTFTGYYMHWVRQAPGQGLEWMGWINPNSGGTNYAQKFQGRVTMTRDTSITTAYMELTRLISDDTAVYYCASPASIPAAGSFAFDIWGQGTMVTVSS
VL: B16 VL with F29V, S30G, N31S, V34L, A35T, G44A, R78G, I99T, L101V, T104K
B18: G001_gp1_V08_VRC01c_2021-0068 (antibody, V domains shown)
VH: QVQLVQSGAEVKKPGASVKVSCKASGYTFTGYYLHWVRQAPGQGLEWMGWINPNSGGTNYAQKFQGWVTMTRTTSISTAYLELSRLRSDDTAVYYCARSVYFDSSGFYYGYWGQGTLVTVSS
VL: DIQMTQSPSTLSASVGDRVTITCRASQSISSWLAWYQQKPGKAPKLLIYKASSLESGVPSRFSGSGSGTEFTLSISSLQPDDFATYYCQQYETFGQGTKVEIK
B19: G001_gp1_V08_VRC01c_2021-0076 (antibody, V domains shown)
VH: QVQLVQSGAEVKKPGASVKVSCKASGYTFTDYYIHWVRQAPGQGLEWMGWINPNSGGTNYARKFQGRVTMTRATSISTVYMELSRLRSDDTAVYYCARGYCTVGWCFDLWGRDTLVTVSS
VL: B18 VL with S30G, S31N, K42R, K50Q, L54S, S74T
B20: G001_gp1_V10_VRC01c_162 (antibody, V domains shown)
VH: QVQLVQSGAEVKNPGASVKVSCKASGYTFSGYYMHWVRQAPGQGLEWMGWINPNSGGTNYAQKFQGRVTMTRDTSISTAYMALSRLRSDDTAVYYCARPAPYDSSGYNWGYWGQGTLVTVSS
VL: B18 VL with I29M, S30N, S31N, S53T, S74T, I102V
B21: G001_gp1_V08_VRC01c_2021-0075 (antibody, V domains shown)
VH: QVQLVQSGAEVKKPGASVKVSCKASGYTFTDYYIHWVRQAPGQGLEWMGWINPNSGGPNYAQKFQDWVTMTRDTSISTAHMELSSLRSDDTAVYYCARGVAHTGFEFGYWGQGTLVTVSS
VL: B18 VL with S53T, S74T, S76N
B22: G001_gp1_V10_VRC01c_161 (antibody, V domains shown)
VH: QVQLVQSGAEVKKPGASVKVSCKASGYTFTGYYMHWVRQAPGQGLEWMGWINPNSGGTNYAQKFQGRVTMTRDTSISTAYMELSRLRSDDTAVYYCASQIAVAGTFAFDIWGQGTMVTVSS
VL: B18 VL with S74T, E92Y, V100L
B23: G001_gp1_V08_VRC01c_2021-0069 (antibody, V domains shown)
VH: QVQLVQSGAEVKKPGASVKVSCKASGYTFTDYYIHWVRQAPGQGLEWMGWINPNSGGTNYAQKFQDWVTMTRDTSVGTAYMELSRLRSDDTAVYYCARGIWSSWHFDVWGRGTLVTVPS
VL: B18 VL with M4V, S31N, W32S, K45N, S53I, S74T, I102V, K103T
B24: G001_gp1_V10_VRC01c_159 (antibody, V domains shown)
VH: QVQLVQSGAEVKKPGASVKVSCKASGYTFADYYIHWVRQAPGQGLEWMGWINPNSGGTNYAQKFQGRVTMTRDTSITTAYMELSRLGSDDTAVYYCARAYYGDYGDYWGQGTLVTVSS
VL: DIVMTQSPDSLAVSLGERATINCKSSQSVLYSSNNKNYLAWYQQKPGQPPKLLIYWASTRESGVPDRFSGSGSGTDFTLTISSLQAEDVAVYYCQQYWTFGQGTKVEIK
B25: G001_gp1_V10_VRC01c_163 (antibody, V domains shown)
VH: not shown
VL: DIVMTQSPDSLAVSLGERATINCKSSQSVYYSSNKKNYLAWYQQKPGQPPKLLIYWTSTRESGVPDRFSGSGSGTDFTLTISSLQAEDVAVYYCQQYWTFGQGTKVEIK
B26: G001_gp1_V08_VRC01c_2021-0063 (antibody, V domains shown)
VH: QVHLVQSGAEVKKPGASVKVSCKASGYTFTGYYMHWVRQAPGQGLEWMGWINPNSGGTNYAQKFQGRVTVTRDTSISTAYMELSRLRSDDTAVYYCATQTHSSGWFVGNNWHFDLWGPGTLVTVSS
VL: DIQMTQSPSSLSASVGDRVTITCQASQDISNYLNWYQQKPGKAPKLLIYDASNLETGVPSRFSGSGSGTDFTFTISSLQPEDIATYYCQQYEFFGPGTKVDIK
B27: G001_gp1_V08_VRC01c_2021-0066 (antibody, V domains shown)
VH: QVQLVQSGAEVKKPGASVKVSCKASGYTFTGYYMHWVRQAPGQGLEWMGWINPNSGGTNYALKFQDWVTMTRDTSISTVYMELSRLRYDDTAVYYCARVNGDYGWNFDLWGRGTPVTVSS
VL: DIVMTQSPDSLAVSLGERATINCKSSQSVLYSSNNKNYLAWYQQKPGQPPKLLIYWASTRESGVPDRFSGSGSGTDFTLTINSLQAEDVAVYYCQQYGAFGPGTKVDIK

molecular target: eOD-GT8 (engineered outer domain germline-targeting version 8), monomer (HIV-1 gp120 engineered outer domain, …)

Row | Binder | binding result
1 | B1 | binds
2 | B2 | binds
3 | B3 | binds
4 | B4 | binds
5 | B5 | binds
6 | B6 | binds
7 | B7 | binds
8 | B8 | binds
9 | B9 | binds
10 | B10 | binds
11 | B11 | binds
12 | B12 | binds
13 | B13 | binds
14 | B14 | binds
15 | B15 | binds
16 | B16 | binds
17 | B17 | binds
18 | B18 | binds
19 | B19 | binds
20 | B20 | binds
21 | B21 | binds
22 | B22 | binds
23 | B23 | binds
24 | B24 | binds
25 | B25 | binds
26 | B26 | binds
27 | B27 | binds
